Assay results taken from article PMC3903132.

Target: PSI^PsaJF, phage-mimetic photosystem I complex with the fused PsaJF subunit (one monomer of the trimer) (Synechocystis sp. PCC 6803) (UniProt P29254)
Experiment: crystal structure; PSI^PsaJF trimer purified from Synechocystis membranes, 3.8 Å, space group P21, three monomers in the asymmetric unit

Question: Which stoichiometry N does the source give for “PSI^PsaJF, phage-mimetic photosystem I complex with the fused PsaJF subunit (one monomer of the trimer) (from UniProt P29254 1-751; P29255 1-731; P32422 1-81; P19569 1-141; P12975 1-74; Q55329 1-40; P29256 84-165; Q55330 1-40; P72712 1-86; P37277 1-157; P72986 1-31)” here?
Answer: Its stoichiometry N is 3.
